Laboratory results from US20190085055A1.
Several values for one entry are separate records, joined by “and”; a condition that tells them apart may be missing. Identical values can stand only once.

Legend:
[1] = target: tissue factor extracellular domains (human) (UniProt P13726); assay: SPR, TF immobilised, purified Fab as analyte, 1:1 model
[2] = target: D3H44 light chain F116A_L135A; assay: LCCA (SPR), competitor L1 L135W
[3] = target: D3H44 light chain F116A_L135V; assay: LCCA (SPR), competitor L1 L135W
[4] = target: D3H44 light chain F116A_L135A; assay: LCCA (SPR), competitor L1 L135W_N137A
[5] = target: D3H44 light chain L135W_N137A; assay: LCCA (SPR), competitor L2 F116A_L135A
D3H44 light chain L135W [6] = assay: LCCA (SPR), competitor L2 F116A_L135A
D3H44 light chain L135W [7] = assay: LCCA (SPR), competitor L2 F116A_L135V
[8] = target: D3H44 light chain F118W_V133S; assay: LCCA (SPR), competitor L1 WT
[9] = target: D3H44 light chain, wild type; assay: LCCA (SPR), competitor L2 F118W_V133S
[10] = target: D3H44 light chain F118W_V133S; assay: LCCA (SPR), competitor L1 F116A
D3H44 light chain F116A [11] = assay: LCCA (SPR), competitor L2 F118W_V133S
D3H44 light chain F116A [12] = assay: LCCA (SPR), competitor L1 WT
[13] = target: D3H44 light chain, wild type; assay: LCCA (SPR), competitor L2 F116A

Chain of D3H44 light chain L135W (light, as listed by the source): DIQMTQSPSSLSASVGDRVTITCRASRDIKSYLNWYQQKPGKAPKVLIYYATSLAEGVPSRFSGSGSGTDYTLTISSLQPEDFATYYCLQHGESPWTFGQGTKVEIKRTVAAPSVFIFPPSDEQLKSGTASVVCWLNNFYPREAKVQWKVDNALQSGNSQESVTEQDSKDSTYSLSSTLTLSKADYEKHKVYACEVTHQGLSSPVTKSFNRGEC
Chain of D3H44 light chain, wild type (light, as listed by the source): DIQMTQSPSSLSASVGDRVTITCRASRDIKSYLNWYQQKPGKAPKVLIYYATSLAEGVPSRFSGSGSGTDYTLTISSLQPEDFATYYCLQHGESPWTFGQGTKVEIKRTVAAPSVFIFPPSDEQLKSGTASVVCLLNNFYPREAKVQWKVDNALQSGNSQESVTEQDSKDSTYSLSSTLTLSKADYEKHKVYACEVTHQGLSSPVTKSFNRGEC
Chain of tissue factor extracellular domains (human) (P13726 33-251): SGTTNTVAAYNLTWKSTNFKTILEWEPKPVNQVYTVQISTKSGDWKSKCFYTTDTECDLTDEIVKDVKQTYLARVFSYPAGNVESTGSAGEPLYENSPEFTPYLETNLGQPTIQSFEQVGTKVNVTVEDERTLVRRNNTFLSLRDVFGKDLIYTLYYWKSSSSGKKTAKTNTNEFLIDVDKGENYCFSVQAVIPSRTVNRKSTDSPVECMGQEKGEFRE

“D3H44 Fab Design 11 H1-L1 (H1 S188L_V190Y, L1 V133S)” gave a Kd [1] of 43 pM.

For “D3H44 Fab Design 11 H2-L2 (H2 F174V_P175S_S188G, L2 S176L)”, the Kd [1] was 40 pM.

“D3H44 Fab Design 13 H1-L1 (H1 L143A_D144G_Q179R, L1 Q124E_V133W_Q160E_T180E)” showed a Kd [1] of 87 pM.

“D3H44 Fab Design 13 H2-L2 (H2 K145T_Q179D_S188F, L2 V133A_Q160K_T178R)” showed a Kd [1] of 86 pM.

Substance “D3H44 Fab Design 15 H1-L1 (H1 D146G_Q179R, L1 Q124E_Q160E_T178D)” has a Kd [1] of 82 pM.

“D3H44 Fab Design 15 H2-L2 (H2 K145T_Q179D_S188L, L2 Q160K_T178R)” gave a Kd [1] of 71 pM.

With “D3H44 Fab Design 30 H1-L1 (H1 D148G_Q175K, L1 Q124E_Q160E_T180E)” the Kd [1] was 24 pM.

In the case of “D3H44 Fab Design 30 H2-L2 (H2 L145E_K147T, L2 Q160K_T178R)”, the Kd [1] is reported as 60 pM.

Substance “D3H44 Fab Design 31 H1-L1 (H1 Q39D_A141G_V185A, L1 Q38R_L135W)” has a Kd [1] of 25 pM.

Substance “D3H44 heavy chain (Fab format) A139G_V190A” has an H1 L2 of H1 L1:H1 L2 (screen) [2] of 10.1, an H1 L2 of H1 L1:H1 L2 (verification) [2] of 10.6 and an H1 L2 of H1 L1:H1 L2 (screen) [3] of 13.8. It also gave an H1 L2 of H1 L1:H1 L2 (verification) [3] of 48.3, an H1 L2 of H1 L1:H1 L2 (screen) [4] of 5.16 and an H1 L1 of H1 L1:H1 L2 (screen) [5] of 70.5. It also gave an H1 L1 of H1 L1:H1 L2 (screen) (D3H44 light chain L135W [6]) of 65, an H1 L1 of H1 L1:H1 L2 (verification) (D3H44 light chain L135W [6]) of 69.5 and an H1 L1 of H1 L1:H1 L2 (screen) (D3H44 light chain L135W [7]) of 68.4. The H1 L1 of H1 L1:H1 L2 (verification) (D3H44 light chain L135W [7]) was 49.

In the case of D3H44 heavy chain (Fab format) A139I, the H2 L2 of H2 L2:H2 L1 (screen) [8] is reported as 51.9 and the H2 L1 of H2 L2:H2 L1 (screen) [9] is reported as 28.9.

Substance “D3H44 heavy chain (Fab format) A139I_V190S” has an H1 L2 of H1 L1:H1 L2 (screen) [8] of 28, an H1 L2 of H1 L1:H1 L2 (verification) [8] of 8.2 and an H1 L2 of H1 L1:H1 L2 (screen) [10] of 25.1. For the same substance, the H1 L2 of H1 L1:H1 L2 (verification) [10] was 0.759, the H1 L1 of H1 L1:H1 L2 (screen) (D3H44 light chain F116A [11]) was 64.7 and the H1 L1 of H1 L1:H1 L2 (verification) (D3H44 light chain F116A [11]) was 59.8. The H1 L1 of H1 L1:H1 L2 (screen) [9] was 67.1 and the H1 L1 of H1 L1:H1 L2 (verification) [9] was 77.

With D3H44 heavy chain (Fab format) A139V the H2 L2 of H2 L2:H2 L1 (screen) [10] was 63.9, the H2 L2 of H2 L2:H2 L1 (verification) [10] was 24.5 and 56.1 and the H2 L1 of H2 L2:H2 L1 (screen) (D3H44 light chain F116A [11]) was 35.7. The H2 L1 of H2 L2:H2 L1 (verification) (D3H44 light chain F116A [11]) was 56.1 and 24.5.

“D3H44 heavy chain (Fab format) A139V_V190S” showed an H1 L2 of H1 L1:H1 L2 (screen) [8] of 35.2, an H1 L2 of H1 L1:H1 L2 (verification) [8] of 8.66 and an H1 L2 of H1 L1:H1 L2 (screen) [10] of 35.1. It also gave an H1 L2 of H1 L1:H1 L2 (verification) [10] of 10.1, an H1 L1 of H1 L1:H1 L2 (screen) (D3H44 light chain F116A [11]) of 68.7 and an H1 L1 of H1 L1:H1 L2 (verification) (D3H44 light chain F116A [11]) of 42.1. The H1 L1 of H1 L1:H1 L2 (screen) [9] was 58.8 and the H1 L1 of H1 L1:H1 L2 (verification) [9] was 52.2.

In the case of “D3H44 heavy chain (Fab format) A139W_V190A”, the H2 L2 of H2 L2:H2 L1 (screen) (D3H44 light chain F116A [12]) is reported as 74.5, the H2 L2 of H2 L2:H2 L1 (verification) (D3H44 light chain F116A [12]) is reported as 51.4 and the H2 L1 of H2 L2:H2 L1 (screen) [13] is reported as 17.8. For the same substance, the H2 L1 of H2 L2:H2 L1 (verification) [13] was 19.7.
